Measured values from paper PMC6336718.

Columns and labels:
[1] = biological target: Bacillus anthracis zinc uptake regulator protein (BaZur) (Bacillus anthracis (Sterne 34F2)); assay: native gel or EMSA
[2] = biological target: Bacillus anthracis zinc uptake regulator protein (BaZur) (Bacillus anthracis (Sterne 34F2)); assay: SEC; […] (50 mM Tris HCl pH 8.0, 150 mM NaCl, 5% glycerol), […]

Bacillus anthracis zinc uptake regulator protein (BaZur) (natural protein)
stoichiometry N [1]: 2
stoichiometry N [2]: 2
